Test results published in the DeepSol protein solubility set.

Test: soluble on expression in E. coli; label from the status in PepcDB or PDB records

Row | Sequence | soluble on expression in E. coli
1 | GPGSMTNPSNSNLQALREELCTPGLDQGHLFEGWPETVDECNERQIALLTDLYMFSNMYPGGVAQYIRNGHELLARESEEVDFAALEMPPLIFEAPSLHRRTAERTALENAGTAMLCKTVFVLVAGGLGERLGYSSIKVSLPVETATNTTYLAYYLRWAQRVGGKEVPFVIMTSDDTHDRTLQLLRELQLEVPNLHVLKQGQVFCFADSAAHLALDETGKLLRKPHGHGDVHSLIYNATVKRDVVPDSGDGTATAQPLVNDWLAAGYESIVFIQDTNAGATITIPISLALSAEHSLDMNFTCIPRVPKEPIGLLCRTKKNSGDPWLVANVEYNVFAEVSRALNKDGGDEVSDPTGFSPFPGSVNTLVFKLSSYVDRLRESHGIVPEFINPKYSDETRRSFKKPARIESLMQDIALLFSEDDYRVGGTVFERFSYQPVKNSLEEAAGLVAQGNGAYCAATGEAAFYELQRRRLKAIGLPLFYSSQPEVTVAKDAFGVRLFPIIVLDTMCASSGSLDDLARVFPTPEKVHIDQHSTLIVEGRVIIESLELYGALTIRGPTDSMALPHVVRNAVVRNAGWSVHAILSLCAGRDSRLSEVDRIRGFVLKKTAMAVMDCNTKGESEAGAPSGAADPAKL | soluble
2 | MGFLKGKKGLIVGVANNKSIAYGIAQSCFNQGATLAFTYLNESLEKRVRPIAQELNSPYVYELDVSKEEHFKSLYNSVKKDLGSLDFIVHSVAFAPKEALEGSLLETSKSAFNTAMEISVYSLIELTNTLKPLLNNGASVLTLSYLGSTKYMAHYNVMGLAKAALESAVRYLAVDLGKHHIRVNALSAGPIRTLASSGIADFRMILKWNEINAPLRKNVSLEEVGNAGMYLLSSLSSGVSGEVHFVDAGYHVMGMGAVEEKDNKATLLWDLHKEQ | soluble
3 | MSLSDDLFAPQVPVEVANRRPLADRLRPKTLSEVSGQPHLTGEEGVLRRMIDSGSLGSMIFWGPPGTGKTTVARLLSGEAGLAFEQISAIFSGVADLKKVFEAARTRRMNGRQTLLFVDEIHRFNRAQQDSFLPVMEDGTIILVGATTENPSFELNAALLSRARVLTFGSHDEDSLSELLKRAEEAEGKPLPLTEEARASLLRMADGDGRAVLTLAEEVWRAARKDETFDTEGLTRIVQRRAPVYDKSQDGHYNLISALHKSVRGSDPDAALYYLARMFDAGEDPLYLGRRLVRMAVEDIGLADPQALAVCNAAKDAYDYLGSPEGELALAQACVYLATAPKSNAVYTAFKAAMRAAKENGSLVPPKHILNAPTKLMKGEGYGDGYRYDHDEPDAFSGQDYFPEKMGRTTFYDPPDRGFEREIRKRLDWWAKLRRERGEGHHHHHH | not soluble
4 | MGLQKKLNYKKTESERSFYRGSNLKQVMGEDIVSKFDYIGPIRWIFLNYCTGYFIFVEELTNNSEIRSDRLEFIDTMNKIFSEAEQYFNSAPKERPKNPKSLAEYKYLGYYRLSFSNTNPDNSAIIRLNDVEVEKSELPPLLNLDTDEILDYAV | not soluble
5 | MKFPGQRKSKHYFPVKTRDPLLEQLTQQPQPFATYISGIDQTLVDIEAKVEDELLSRYGLPKGNSTLINDEQAHRLYTELKIHGLISDEFAGGTIGNTVHNYSILADDRSVLFGVMSQNIEVGSYAYRYLCNTSSKVDLNYLQPVDGPIGRCFTLISDCGERTFAISKGAMDKLTPEFIDKDVVQGSSALVLTAYLMRASGGDRITDAAMCAIEYAKAADVPVVLTLGTRFLIEEDPLWWQNFIKEHVTILAMNEDEGEALTGSRDPLLASEKALEWCDMVLTTAGPIGLYTAGYTEDSEKRETTHTLLPGAIPEFNRYEFSRPKLKSDCETPIKVYAHISPYMGGPEKIGNTNGAGDGALSALLHDLAANTFHKTNVPGSSKHKRDGLCYSSFSQICKYANRVAYEVLAQHSPRLSRGLPEREDSLEESYWER | soluble
6 | MSLTEYVDAVPAASMTVCTVQHTDTTPQHSINEDRVIPLDSNKGIADMEFGDAHTLAHRVSASAERMYRFSSIETTQFIKILLRKMAARMASLASCHTHVYASSHSLPWDSACEHYIFGMRRILIEGHHHHHH | not soluble
7 | RFLSIKTSWEDYFLEDDPMIIKTEEFKSVFGNDNYAAVLTDCDNTFTKENLELIRRLSNEMLDSISYAEKITSLTDIEFMIGNEEGMAIEQIVPEEIPSDSAGLAEIRRKAFLKPYIADRLVSKDGTLTWILLKLNPFPSDSVWNKGKGAVAPEMVVGRELEHIIRKPEYAALHPKGAGMPYMTDRKMAWVNRE | not soluble
